Source: patent US20030232051A1 (GOVERNMENT OF THE UNITED STATES OF AMERICA AS REPRESENTED …, published 2003)

B1: DAP10 (other, UniProt Q9UBK5 19-93, looked up)
chain: QTTPGERSSLPAFYPGTSGSCSGCGSLSLPLLAGLVAADAVASLLIVGAVFLCARPRRSPAQEDGKVYINMPGRG
notes: whole, on cells
B2: FcRγ chain (other, UniProt P30273 19-86, looked up)
chain: LGEPQLCYILDAILFLYGIVLTLLYCRLKIQVRKAAITSYEKSDGVYTGLSTRNQETYETLKHEKPPQ
notes: whole, on cells
B3: DAP12 (other, UniProt O43914 22-113, looked up)
chain: LRPVQAQAQSDCSCSTVSPGVLAGIVMGDLVLTVLIALAVYFLGRLVPRGRGAAEAATRKQRITETESPYQELQGQRSDVYSDLNTQRPYYK
notes: whole, on cells; also called DAP12 adaptor protein

Target: T1, KIR2DL4 receptor (on NK cells or on cells transfected with 2DL4) (human, UniProt Q99706 22-377)
T1 construct: whole, on cells; Endogenous on human NK cells and NK cell lines (NK3.3, NKL, NK92) or on transfected cells; also called CD158d
Assay: transfection experiments in Ba/F3 and 293T cells

T1 sequence (Q99706 22-377): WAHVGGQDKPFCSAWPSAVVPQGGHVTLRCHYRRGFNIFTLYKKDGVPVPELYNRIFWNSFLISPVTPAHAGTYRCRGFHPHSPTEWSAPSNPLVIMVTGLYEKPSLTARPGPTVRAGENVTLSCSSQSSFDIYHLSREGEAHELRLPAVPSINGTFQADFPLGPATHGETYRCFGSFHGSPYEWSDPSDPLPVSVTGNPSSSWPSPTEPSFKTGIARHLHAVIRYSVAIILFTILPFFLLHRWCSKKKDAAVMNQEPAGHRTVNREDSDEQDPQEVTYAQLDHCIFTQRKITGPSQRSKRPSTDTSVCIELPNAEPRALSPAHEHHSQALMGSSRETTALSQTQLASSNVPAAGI

Binder	binding result
B1	no binding
B2	no binding
B3	no binding
